Experimental data reported in patent US7303752B2, “Hookworm vaccine” (The George Washington University, priority 2001, dated 2007).
Values joined by “and” are separate entries in the source; they are usually repeats but may differ in a detail not shown here. Identical values can stand only once.

Legend:
recombinant Ac-CP-2 = assay: Proteolytic activity of recombinant Ac-CP-2 against Z-Phe-Arg-AMC; type: biochemical, Ancylostoma caninum
Method: Purified, recombinant Ac-CP-2 was assessed for proteolytic activity using the fluorogenic peptidyl substrate Z-Phe-Arg-aminomethyl coumarin (AMC) (Bachem). The pH optimum of Ac-CP-2 was assessed using Z-Phe-Arg-AMC at different pH values according to published protocols. The cysteine protease inhibitor E64 was included in some assays at a final concentration of 5 μM. Recombinant Ac-CP-2 was treated with PNGase F and O-glycosidase, according to the manufacturer's instructions (Enzymatic CarboRelease kit, QA-Bio), under denaturing conditions to remove any N-linked and O-linked oligosaccharides.
Canine IgG was purified from sera of vaccinated dogs using protein A-agarose (Amersham Biosciences) as previously described. Purified IgG (10-500 ng) was incubated with 1.0 μg of recombinant Ac-CP-2 for 45 mins prior to assessing proteolytic activity as described above.

[1] = test system: antibody to recombinant proteins; assay: Pre-challenge antibody titer ELISA, trial with Ac-ASP-2, Ac-API, Ac-MEP-1, Ac-APR-1 in AS03; type: in vivo, dog
Method: (§1) The vaccine trial was designed to test Ac-API, Ac-ASP-2, Ac-MEP-1, Ac-APR-1 formulated with Adjuvant System 03 (AS03) obtained from GlaxoSmithKline (GSK). The rationale for selecting AS03 as an adjuvants is discussed elsewhere (Stoute et al, 1997). The ten purpose bred beagles were randomized into five arms: immunized with the adjuvant-formulated recombinant proteins or adjuvant only (control). To make six doses of antigen formulated with AS03, […] of recombinant protein (0.3 ml of antigen at a concentration of 2 mg.ml^−1) was mixed with 1.2 ml of 20 mM Tris-HCl, 0.5 M NaCl, pH 7.9 and 1.5 ml of AS03; the contents of the tube were vortex mixed for 30 seconds then shaken at low speed for 10 minutes. Dogs were immunized with 100 g of formulated antigen in a final volume of 0.5 ml. ASO3 only control was prepared as described above, with PBS included instead of antigen. Formulation of GSK adjuvants were conducted according to the protocol provided by GSK. All injections were performed intramuscularly (IM). Test and control articles were prepared on the day of injection. All animals received 4 immunizations approximately 3 weeks apart.
Beagles were immunized with formulated Ac-ASP-2 as previously described (Loukas et al, 2004). The vaccines were administered IM three times beginning at age 62+/−4 days. Boosts were administered to the dogs at intervals of 21 days. Blood was drawn at least once every 21 days and serum was separated from cells by centrifugation. Each animal's specific antibody response was evaluated by indirect ELISA using serum taken prior to the infective challenge (Loukas et al, 2004). Recombinant Ac-ASP-2 was coated onto microtiter plates at a concentration of 5 g.ml^−1. Dog sera were titrated between 1:100 and 1:2×10^6 to determine endpoint titers. Anti-canine IgG1, IgG2 and IgE antibodies conjugated to horse-radish peroxidase (Bethyl Laboratories) were used at a dilution of 1:1,000.

anti-ASP-2 antibodies = assay: ELISA of canine IgG1, IgG2, IgE after Ac-ASP-2/AS03 vaccination (Example 12); type: in vivo, dog
Method: This study was conducted and reported in compliance with the intent of the Good Laboratory Practice Regulations (F.R. Vol. 43, No. 247, pp. 60013-60025, Dec. 22, 1978 and subsequent amendments). The study was audited by Quality Assurance while in progress to assure compliance with GLP regulations, adherence to the protocol and standard operating procedures. The data and final report were audited by Quality Assurance to assure that the report accurately described study conduct and results. The vaccine trial was designed to test Ac-ASP-2 formulated with Adjuvant System 03 (AS03) 44 obtained from GlaxoSmithKline. The rationale for selecting AS03 as an adjuvants is discussed elsewhere 37. The ten purpose bred beagles were randomized into two arms: immunized with Ac-ASP-2 (SEQ ID NO: 20) or adjuvant only (control). To make six doses of Ac-ASP-2 (SEQ ID NO: 20) formulated with AS03, 600 μg of recombinant protein (0.3 ml of Ac-ASP-2 (SEQ ID NO: 20) at a concentration of 2 mg.ml^−1) was mixed with 1.2 ml of 20 mM Tris-HCl, 0.5 M NaCl, pH 7.9 and 1.5 ml of AS03; the contents of the tube were vortex mixed for 30 seconds then shaken at low speed for 10 minutes. […]
Beagles were immunized with formulated Ac-ASP-2 (SEQ ID NO: 20) as previously described^37. […] Each animal's specific antibody response was evaluated by indirect ELISA using serum taken prior to the infective challenge^37. […]

A. caninum [2] = assay: Canine vaccine trial with Ac-ASP-2, Ac-API, Ac-MEP-1, Ac-APR-1 in AS03, footpad challenge with 500 A. caninum L3; type: in vivo, dog
Method: as §1, with “The ten purpose bred beagles were randomized into five arms: immunized with the adjuvant-formulated recombinant proteins or adjuvant only (control).” left out
A. caninum larvae were cultured from eggs collected in the feces of infected dogs. All hookworms in the infective challenge were approximately equal age (17±7 days post hatching). The species identity of the infective larvae were validated using PCR. All dogs were infected by the footpad method with the same dose of 500 L3 of A. caninum (Zhan et al, 2001). Larval challenge occurred on one of three consecutive days (at age 120+/−9 days). Fourteen-sixteen days after the final immunization, dogs were anesthetized using a combination of ketamine and xylazine (20 mg.kg^−1 and 10 mg.kg^−1 respectively), and 500 A. caninum L3 in a final volume of […] were applied to the footpad.

A. caninum [3] = assay: Canine vaccine trial with Ac-TTR and SBAS2, L3 challenge: worm burden, blood loss, worm size; type: in vivo, dog
Method: E. coli derived antigens Ac-MTP-1 and Ac-TTR were tested in vaccine trials in dogs. Antigens were administered with adjuvant SBAS2. […] Subsequently the dogs were challenged by subcutaneous injection of L3 hookworm larvae.
Animals were also tested to ascertain whether vaccination with hookworm antigens protected against blood loss. […] Using the Mann-Whitney test, the differences in both hemoglobin (38B) concentration (P=0.036) and hematocrit (38A) concentration (P=0.009) between the TTR and adjuvant control groups were statistically significant.
Further, the differences in hemoglobin concentration translated to a statistically significant reduction in worm size. Data was collected using an imaging system based on scans of the worms recovered from a host. Worms were photographed with a CoolSnapPro digital camera (Media Cybernetics), and the images measured in ImagePro Software using a macro to determine worm length (in mm) compared between treatments. As shown in FIG. 39 there was a statistically significant reduction in worm size (between 1 and 2 mm) among the TTR vaccinated group relative to the adjuvant control group.

## CC(C)C[C@H](NC(=O)[C@H]1O[C@@H]1C(=O)O)C(=O)NCCCCN=C(N)N [E64]
Recombinant Ac-CP-2; 1.0 μg Ac-CP-2, Z-Phe-Arg-AMC, 50 ng pooled IgG or E64 5 μM, mean of triplicate
  % reduction in proteolytic activity: 100 ± 0%
Recombinant Ac-CP-2; final concentration of 5 μM
  cleavage of the peptide substrate, in words: completely ablated

B1: Ac-ASP-2: A. caninum secreted protein 2, SEQ ID NO: 20; recombinant from Sf9 insect cells, given with AS03 (protein, listed as Ancylostoma caninum)
chain: MLVLVPLLALLAVSVHGNSMRCGNNGMTDEARQKFLDVHNSYRSMVAKGQAKDAISGNAPKAAKMKKMIYDCNVESTAMQNAKKCVFAHSHRKGVGENIWMSTARQMDKAQAAQQASDGWFSELAKYGVGQENKLTTQLWNRGVMIGHYTQMVWQESYKLGCYVEWCSSMTYGVCQYSPQGNNMNSLTYEKGNPCTKDSDCGSNASCSAGEALCVVRG
[1]; geometric mean of group
  Pre-challenge antibody titer, IgE, GEOMEAN: 100
  Pre-challenge antibody titer, IgG1, GEOMEAN: 10,837
  Pre-challenge antibody titer, IgG2, GEOMEAN: 20,950
[1]; immunized canines
  IgG1 and IgG2 antibody titers to recombinant Ac-ASP-2, in words: strong
[1]; individual dogs
  Pre-challenge antibody titer, IgE: 100
  Pre-challenge antibody titer, IgG1: 13,500 (4×) and 4,500
  Pre-challenge antibody titer, IgG2: 40,500 (2×) and 13,500 (3×)
[1]; test canines
  IgE titers to Ac-ASP-2, in words: one log lower than the IgG1 and IgG2 titers
anti-ASP-2 antibodies; immunized canines
  IgG1 and IgG2 antibody titers to recombinant Ac-ASP-2, in words: strong
anti-ASP-2 antibodies; test canines
  IgE titers to Ac-ASP-2, in words: one log lower than the IgG1 and IgG2 titers
A. caninum [2]; 5 dogs
  worm burdens, Maximum: 226.00
  worm burdens, Minimum: 89.00
A. caninum [2]; 5 dogs, ASO3 control 203.8000
  worm burdens, Mean: 166.0000
A. caninum [2]; 5 dogs, ASO3 control 215.0000
  worm burdens, Median: 174.0000
A. caninum [2]; group average, AS03 control 5
  worm burden, Colon, Male, Average: 4
A. caninum [2]; group average, AS03 control 9
  worm burden, Colon, Female, Average: 5
A. caninum [2]; group average, AS03 control 95
  worm burden, Intestine, Female, Average: 81
A. caninum [2]; group average, AS03 control 96
  worm burden, Intestine, Male, Average: 76
A. caninum [2]; group average, AS03 control 204
  worm burden, Total, Average: 166
A. caninum [2]; individual dogs
  worm burden, Colon, Female: 5 and 4 and 3 and 8 and 6
  worm burden, Colon, Male: 5 and 4 and 1 (2×) and 9
  worm burden, Intestine, Female: 87 and 101 and 115 and 72 and 28
  worm burden, Intestine, Male: 62 and 72 and 107 and 85 and 54
  worm burden, Total: 160 and 181 and 226 and 174 and 89

B2: Ac-TTR-1: A. caninum transthyretin antigen, SEQ ID NO: 30; E. coli derived, given with SBAS2 (protein, listed as Ancylostoma caninum)
chain: MIQLFLLALVPMCISVREQSIAVKGRLLCGDQPAANVRVKLWEEDTGPDPDDLLDAGYTNSNGEFQLQGGTIETTPIDPVLKIYHDCNDVTGFLSVPKPGSRKVRFSLPDKYISDGMVPKKVMDIGVINLEVEFEKEGREFIVD
A. caninum [3]; one dog with high IgE and IgG1 antibody to TTR
  reduced hookworm burden: 6%
A. caninum [3]; versus adjuvant control, hemoglobin P=0.036, hematocrit P=0.009
  protection against blood loss (hemoglobin, hematocrit): significant protection against blood loss
